Patent US20230049152A1 (Genentech, published 2023)
Residue numbers refer to the chain shown, from its start. One block for each binder: values may come before it.

How the values were obtained:
S8A = target: T1, S8A; experiment: flow cytometry, HEK293 transfected with hCCR8 S8A with C-terminal FLAG; sheet prints [huCCR8]=0.02 ug/ml
T1 construct: single alanine mutant of hCCR8; also called hCCR8 S8A
T1 receptor chain: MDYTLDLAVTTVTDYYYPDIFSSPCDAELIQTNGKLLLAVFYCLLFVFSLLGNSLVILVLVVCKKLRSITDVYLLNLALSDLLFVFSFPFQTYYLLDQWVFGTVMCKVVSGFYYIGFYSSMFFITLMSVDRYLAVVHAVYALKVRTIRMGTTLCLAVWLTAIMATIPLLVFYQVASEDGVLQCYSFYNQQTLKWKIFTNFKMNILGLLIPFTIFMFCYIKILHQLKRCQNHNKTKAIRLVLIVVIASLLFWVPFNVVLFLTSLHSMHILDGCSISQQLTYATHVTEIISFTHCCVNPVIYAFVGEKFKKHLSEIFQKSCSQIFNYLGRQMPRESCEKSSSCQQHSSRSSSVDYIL

hCCR8 L5A = target: T2, hCCR8 L5A (human, UniProt P51685 1-355); experiment: flow cytometry on transfected HEK 293 cells
T2 construct: alanine point mutant on transfected HEK 293 cells
Method: (§1) To epitope map fucosylated hu.Ab5.H13L1, the binding to alanine point mutations in human CCR8 was analyzed by flow cytometry.
Constructs encoding for individual alanine point mutations at positions 2-24 in hCCR8 with a C-terminal FLAG tag were generated. HEK 293 cells were transfected with constructs encoding for mutant hCCR8 or with a mock construct using transIT X2 (reagent:DNA=3:1) for 24 hrs, and surface stained with the huCCR8 antibody hu.Ab5.H13L1 (hIgG1), then fixed and permeabilized and followed by FITC-anti-Flag (Sigma F4049).

T13A = target: T3, T13A; experiment: flow cytometry, HEK293 transfected with hCCR8 T13A with C-terminal FLAG; sheet prints [huCCR8]=0.02 ug/ml
T3 construct: single alanine mutant of hCCR8; also called hCCR8 T13A
T3 receptor chain: T1 receptor chain with A8S, T13A
Method: FIGS. 16A-16B depict the epitope maps for hu.Ab5.H13L1 (FIG. 16A) and hu.Ab4.H12L3 (FIG. 16B) mAbs.
as §1

Y16A = target: T4, Y16A; experiment: flow cytometry, HEK293 transfected with hCCR8 Y16A with C-terminal FLAG; sheet prints [huCCR8]=0.02 ug/ml
T4 construct: single alanine mutant of hCCR8; also called hCCR8 Y16A
T4 receptor chain: T1 receptor chain with A8S, Y16A

V12A = target: T5, V12A; experiment: flow cytometry, HEK293 transfected with hCCR8 V12A with C-terminal FLAG; sheet prints [huCCR8]=0.02 ug/ml
T5 construct: single alanine mutant of hCCR8; also called hCCR8 V12A
T5 receptor chain: T1 receptor chain with A8S, V12A

L7A = target: T6, L7A; experiment: flow cytometry, HEK293 transfected with hCCR8 L7A with C-terminal FLAG; sheet prints [huCCR8]=0.02 ug/ml
T6 construct: single alanine mutant of hCCR8; also called hCCR8 L7A
T6 receptor chain: T1 receptor chain with L7A, A8S

[1] = target: T7, human CCR8.CCR5 chimera ECL2 (human, UniProt P51681 167-189); experiment: flow cytometry, 293 cells transfected with the CCR8.CCR5 chimera ECL2 with C-terminal FLAG
T7 construct: domain: ECL2; Flanking CCR8 ranges derived from the stated replaced range 172-193; on transfected 293 cells; also called ECL2 chimera
Method: To epitope map fucosylated hu.Ab4.H12L3, the binding to chimeric forms of human CCR8 was analyzed by flow cytometry.

binding result (S8A): binds | binding result (hCCR8 L5A): no binding | binding result (T13A): binds | binding result (Y16A): binds | binding result (V12A): binds | binding result (L7A): binds
B1: hu.Ab5.H13L1 (antibody, human IgG1, kappa)
heavy: not shown
light: DIQVTQSPSSLSASVGDRVTITCQASENIANALAWYQQKPGKPPKFLIYGASNLASGVPSRFSGSGSGTDFTFTISSLQPEDIATYYCQQAYYGNSFVEGTFGGGTKVEIKRTVAAPSVFIFPPSDEQLKSGTASVVCLLNNFYPREAKVQWKVDNALQSGNSQESVTEQDSKDSTYSLSSTLTLSKADYEKHKVYACEVTHQGLSSPVTKSFNRGEC
notes: fucosylated human IgG1; also called Ab5 variant

binding result [1]: no binding
B2: hu.Ab4.H12L3 (antibody, human IgG1, kappa)
heavy: not shown
light: DYQMTQSPSSLSASVGDRVTITCQASQSISSYLSWYQQKPGKAPKLLIYKASTLASGVPSRFSGSGSGTDFTLTISSLQPEDFATYYCQQGYTSSNIDNIFGGGTKVEIKRTVAAPSVFIFPPSDEQLKSGTASVVCLLNNFYPREAKVQWKVDNALQSGNSQESVTEQDSKDSTYSLSSTLTLSKADYEKHKVYACEVTHQGLSSPVTKSFNRGEC
notes: fucosylated human IgG1; also called huCCR8-Ab4.H12L3.hIgG1; Ab4 variant
